Read-outs that look alike come from different tables or passages of the source.
What was measured:
[1] = molecular target: T1, PTx-S1-220 (truncated PTx-S1, residues 1-220, strain Tohama I, variant B) (Bordetella pertussis, UniProt P04977 35-254)
T1 sequence: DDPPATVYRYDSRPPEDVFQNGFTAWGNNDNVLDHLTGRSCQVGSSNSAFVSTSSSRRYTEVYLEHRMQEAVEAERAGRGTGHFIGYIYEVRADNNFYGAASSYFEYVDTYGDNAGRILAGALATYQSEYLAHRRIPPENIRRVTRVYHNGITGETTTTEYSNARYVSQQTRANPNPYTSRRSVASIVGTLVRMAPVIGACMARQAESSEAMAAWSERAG

[2] = molecular target: T2, pertussis toxin holotoxin (Bordetella pertussis, UniProt P04977 35-269; P04978 31-226; P04979 32-227; P0A3R5 43-152; P04981 36-133); test: competition ELISA (Friguet), 5 nM antibody with PT in solution, coated PT
T2 construct: also called PTx; PT

[3] = molecular target: T3, pertussis toxin B-oligomer (Bordetella pertussis, UniProt P04978 31-226; P04979 32-227; P0A3R5 43-152; P04981 36-133); test: ELISA repeated with mAb 1B7; EC50 as percent of the PTx reference
[4] = molecular target: pertussis toxin subunit S3 (Bordetella pertussis, UniProt P04979 29-227); test: Western blot of B-oligomer and PTx
[5] = molecular target: pertussis toxin subunit S4 (Bordetella pertussis, UniProt P0A3R5 43-152); test: Western blot of B-oligomer and PTx
[6] = molecular target: pertussis toxin subunit S2 (Bordetella pertussis, UniProt P04978 28-226); test: Western blot of B-oligomer and PTx
[7] = molecular target: pertussis toxin subunit S5 (Bordetella pertussis, UniProt P04981 35-133); test: Western blot of B-oligomer and PTx
[8] = molecular target: T2, pertussis toxin holotoxin; test: cell-based or functional assay
[9] = molecular target: full length PTx-S1 (1-235) protomer (Bordetella pertussis, UniProt P04977 35-269); test: SPR (BIAcore 3000), mAb 1B7 immobilised on CM5 chip, toxin injected
[10] = molecular target: T2, pertussis toxin holotoxin; test: as above
[11] = molecular target: T1, PTx-S1-220 (truncated PTx-S1, residues …); test: as above
[12] = molecular target: T4, PTx-S1D (residues 1-220, D34E, I198V) (Bordetella pertussis, UniProt P04977 35-254); test: as above
T4 chain: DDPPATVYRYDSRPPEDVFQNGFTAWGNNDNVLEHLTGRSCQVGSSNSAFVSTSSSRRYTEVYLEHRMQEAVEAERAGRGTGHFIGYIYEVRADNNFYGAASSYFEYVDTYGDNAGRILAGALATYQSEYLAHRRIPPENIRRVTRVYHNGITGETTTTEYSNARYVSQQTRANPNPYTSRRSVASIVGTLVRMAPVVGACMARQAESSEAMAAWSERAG

[13] = molecular target: T5, PTx-S1 9K/129G (residues 1-220, R9K, E129G) (Bordetella pertussis, UniProt P04977 35-254); test: as above
T5 chain: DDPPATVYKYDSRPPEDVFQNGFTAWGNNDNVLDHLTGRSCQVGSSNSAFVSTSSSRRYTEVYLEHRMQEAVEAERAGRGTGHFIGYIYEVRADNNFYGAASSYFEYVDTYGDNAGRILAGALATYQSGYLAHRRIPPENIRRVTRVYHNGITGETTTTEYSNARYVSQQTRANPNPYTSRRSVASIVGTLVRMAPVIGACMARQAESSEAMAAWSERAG

[14] = molecular target: T6, PTx-S1A (residues 1-220, M194I) (Bordetella pertussis, UniProt P04977 35-254); test: as above
T6 chain: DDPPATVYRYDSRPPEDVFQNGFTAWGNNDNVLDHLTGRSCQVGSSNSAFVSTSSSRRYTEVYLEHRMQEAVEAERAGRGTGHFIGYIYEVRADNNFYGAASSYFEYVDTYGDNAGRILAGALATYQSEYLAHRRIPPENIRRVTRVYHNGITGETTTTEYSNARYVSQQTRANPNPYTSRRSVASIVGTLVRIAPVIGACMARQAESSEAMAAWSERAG

[15] = molecular target: T3, pertussis toxin B-oligomer; test: as above
PTx-S1-220 T158A = molecular target: T7, PTx-S1-220 T158A (Bordetella pertussis, UniProt P04977 35-254); test: as above
T7 chain: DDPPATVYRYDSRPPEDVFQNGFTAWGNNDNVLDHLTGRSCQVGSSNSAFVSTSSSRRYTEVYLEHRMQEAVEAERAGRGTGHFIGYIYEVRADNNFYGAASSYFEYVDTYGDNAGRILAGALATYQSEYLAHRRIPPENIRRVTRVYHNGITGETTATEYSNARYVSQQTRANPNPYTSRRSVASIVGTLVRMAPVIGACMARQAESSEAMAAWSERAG

B1: murine monoclonal antibody 1B7 (antibody, V domains shown)
VH: EVQLQQSGSELVRPGASVKLSCKASGYKFTSYWMHWVKQRPGQGLEWIGNIFPGSGSTNYDEKFNSKATLTVDTSSNTAYMQLSSLTSEDSAVYYCTRWLSGAYFDYWGQGTTLTVSS
VL: DIQMTQSPALMSASPGEKVTMTCSASSSVSFMYWYQQKPRSSPKPWIYLTSNLPSGVPARFSGSGSGTSYSLTISSMEAEDAATYYCQQWSSHPPTFGSGTKLEIKR
notes: also called mAb 1B7; 1B7 mAb
koff [1]: 0.0019 s⁻¹ | Kd [2]: 1.1 nM | % EC50 PTx [3]: 30% | binding result [4]: no binding | binding result [5]: no binding | binding result [6]: no binding | binding result [7]: no binding | In Vitro Neutralization (nM), minimum protective concentration, CHO clustering assay [8]: 5.2 nM | koff [9]: 0.0019 s⁻¹ | koff [10]: 0.0004 s⁻¹ | koff [11]: 0.0014 s⁻¹ | koff [12]: 0.00095 s⁻¹ | koff [13]: 0.0016 s⁻¹ | koff [14]: 0.00071 s⁻¹ | koff [15]: 0.0027 s⁻¹ | koff (PTx-S1-220 T158A): 0.0013 s⁻¹

Reference: patent US20140193401A1 (published 2014)
